A short description of this data set: label from the status in PepcDB records.

The record followed here is a protein production outcome set (Wang et al. 2014).

In the case of “MSGSNSSNHLHEREGTSEESREQSHKHSGLFNPRLFLHSLSHKFSHTPFHKHSHVHPHEHSHGHSHTHGRVDPSIIATQKGLWAVKWSFIGLMVTAVLQIFIVIMSGSVALLADTIHNFGDASTAIPLAIAFTLARRKPSKRFSYGYGRVEDLAGVIIVFLILFSAAVAGYESVTRFLNPRPVEHLQAVALAAIIGCIGNEVVAQFRMKVGKEIGSAALIADGYHARMDGFTSLAVLVGAVGVWLGYPILDPLIGMLITIAILKIVLDSSKLVFTRLLDGVEPEVLDQVKAIAEGVEGVCEVTDLRVRWIGHRLHAEINASVDPSLSVEEGHEIANAVREKLLENFSYLSGTTIHVDPVTASGECCHCGSESPDKRLGRQKRVLNVYPG”, the protein production entry is reported as “failed”.
“MSHALRAVFLDHASLDLGDLDMRPLRAAFDELQLHAASQPQEVAARLHDARVAISNKVPIDAQCIAACPELELILISATGTNNIDLAAARERGIVVANCHGYGTPSVAQHTLALLLALATRLPDYQQAVRSGRWQQSSQFCLLDFPIVELEGKTLGLLGHGELGGAVARLAEAFGMRVLLGQLPGRPARADRLPLGELLPRVDALTLHCPLTEDTRGMLGSAELALMKPGAFLVNTARGGLVDEQALADALRGGHLGGAATDVLSVEPPRNGNPLLAPDIPRLIVTPHNAWGSREARQRIVGQLAENAEAWKAGR”: the protein production entry is reported as “failed”.
Take “MSHGIKLLVSGDHACFTRPEMKAERVSYDVMTPSAARGILEAIHWKPAITWVIDAIHVLKPIRFQTLRRNEVGGKVPAGKVKSAMTKGTLDGLALLADEDRQQRATTLLVDVAYVIEAHFTLTDKAGPEDNPGKHLDIFTRRARKGQCFHQPCLGTREFPARFELIDGDRPIPAAVNRSEDLGFMLWDIDHAGDRSSMFFRARMDRGVVRVPAPSSAEIRR”: the protein production entry is “failed”.
In the case of “MSHNEESPGIGPGAGGQDSTTALIEAINIRSMSLIVLTSIASLYFIEWAQPVLLPLVVAVLISYALDPLVATLDRIHIPRPLGAALVLCTLIAILAAASVPLKQEAMAMLDKIPQAIKELQREDASTSEDEESIMEKAQIAAKQIEETAENREGKPAVQAGVTPVRVVDEPMDVRDYVIRNSPATIVLISQMFSVLLLVFFLLSVGKLYRRKIVRISGPSFRRMRKAARIMNELHHQVRRFLFVMVISALFVGILTWLAFLLLGVEQAALWGVVAGIASGVPYLGPFLVLVGSGVAAFLQFGELNTAVIVALTSLVITSIQGNLLMPWLTSYVSSLNAVAIFIGLLFWGWLWGPVGLIVATPILMIAKSVCDHVVNFRPVGELLGK”, the protein production entry is “failed”.
As to “MSHPHPELGRPPALPKGGLRVTPLGGLGEIGRNMTVFEYGGRLLIVDCGVLFPEEEQPGIDLILPDFTSIRDRLDDIEGIVLTHGHEDHIGGVPFLLREKPDIPLIGSKLTLALIEAKLQEHRIRPYTLEVAEGHRERVGPFDCEFVAVNHSIPDALAVAIRTPAGMVVHTGDFKMDQLPLDGRLTDLHAFARLSEEGIDLLLADSTNAEVPGFVPPERDISNVLRQVFANARKRIIVASFASHVHRIQQILDAAHEYGRRVAFVGRSMVRNMGIARDLGYLKVPPGLVVDVKTLDDLPDSEVVLVCTGSQGEPMAALSRMANRDHQIRIVNGDTVILASSLIPGNENAVYRVINGLTRWGANVVHKGNAKVHVSGHASAGELLYFYNICRPKNLMPVHGEWRHLRANAELGALTGVPHDRIVIAEDGVVVDLVEGKAKITGKVQAGYVYVDGLSVGDVGEPALKDRKILGDEGIISVFVVMDSSTGKITGGPHVQARGSGIEDSAFAAVLPKVTEALERSAQDGVVEPHQMQQLIRRTLGKWVSDTYRRRPMILPVVVEV”, the protein production entry is recorded as “failed”.
Turning to “MSHSVEAEDNKLVKTFKDIIPLTFGEEIGNSVSHGVAAFIALCALPYAAIHSFLEYGVLGAFSVSVYVISIFLMFISSTVYHAMPNQSSHKFILRIIDHSMIYVAIAGTYTPICLTLVGGWIGWSSMVVLWGITIWGILYKSLAKNVNHKLSLIMYLVMGWIGVLFLPTIIFDSSLLFMLFILFGGLAYTIGAWFYAQKNRPYFHMIWHFFIIVASVFHFVAIMYFM”, the protein production entry was “failed”.
Consider “MSHTAEIPMVPGSESPLELKPLKAVDPKAVYHRRAQRLLSLAKDSPLADYFELCRRVVAIQARLAAEADFGQLLAWGKDEAIPLSHLGSEADSYWQGLLQQLLSDLLPQVGEDLARVLRLLMQQSPEQLTSWGASLRQGHMSAVPARFSLFIWAAMGVYWSHWAPMVIKRIDQRKVAQQNLCPICGSHPVASVIVDQPRAGLRYLHCSLCESEWHYIRAHCTSCGQDKGTTLWSFDDTQAQVRIESCDECHGYTKMMFVEKSPLMDVVADDLATLMLDSELNAKGFGATTVNPLLLAHETEQ”, for which the protein production result is given as “failed”.
With “MSHVSLQEFLKTEPDGTLEVVAEQYNTTLLEVVRNLPSSTVVPGDKFDTVWDTVCEWGNVTTLVHTADVILEFSGELPSGFHRHGYFNLRGKHGMSGHIKAENCTHIALIERKFMGMDTASILFFNKEGSAMLKIFLGRDDHRQLLSEQVSAFHTLAASLKEHA”, the protein production entry was “not failed”.
As to “MSIADAEFAQAKTAQSAPTAAKPQLPPGVVTEGPLVKAKLRESYLLLGILYVGAVAGIIWAVTQGVGKVELFTFAWMFALTTFGIGAGMHRLFVHRSFRTGPIMRVFFCAIAQMAVQGSIAKWVANHRRHHLYADDVGDPHSPQFDGFGNRYVSALKGFLHAQGSWVFDQATTDNEYYAKDILADPIAMFFVRTRWVWYGMSAVFIPGFIGYVFGGVHTMIGCVLFSGLLRAYLLILVSQLTGSVCHAYGYRRFEVDDASTNEFVTTILTFGEGLHNNHHRFPRDAYISHAWWEIDLNGLIILGMEKIGLVHDVFHASHRQLERASEAQAASTR”, the protein production entry is listed as “failed”.
On to “MSIASLIGTVGGVGYLRPAPGTWGSLAALPLAWVLHQLGGFPLLALATLGAFVAGLWATRVMTAGQTDHDPSEIVIDEVAGQFLALWALSLPAWSHGIEISALWPGWIAAFVLFRLFDITKPGPVGWADRRGDPMGVMLDDIIAGLFAAIGTALLAALSHGVLGL”, for which the protein production result is given as “failed”.
Take “MSIATTPLHTALSLPQIQSFAASDMAAIDTLIHDRLTSDIVLINQIADHIICSGGKRLRPMLTMLAGHAIGPTGPHHHQLAAIIEFIHTATLLHDDVVDGSELRRSRSTANALWGNAPSVLVGDFLYSRSFQLMTELANLEVMQILAETTNRISEGEVLQLLHVHNPDTDETTYLSVIERKTAILFAAAAQLGALASHADTQTQTRMYEYGMQLGYAFQITDDVLDYTANNSQLGKNLGDDLAEGKATLPVIHAMTHSDAATCERLRMIISKGDSDAMPEVLNAIRTTGSLDYSRQRASAYAATAERALDGLPETEAVAALRGLARYAVQRTY”: the protein production result is listed as “failed”.
Next, “MSIDVHPNNYAYQTNEPYKNFEAEDKLIGHLQDFVDGHQEDVKRIGSKMSEMKAKFEEKFDDLTNRLENMEGALVEINNALLNHQDDIQDQYTRIVNVGLVVDTVESHLDWKIEELEKKLNNSNEFSE”: “not failed”.
For the sequence “MSIELDATTYIHAKPTTAHSYILPKIFDVLGDHFDGSAENDVFDLGCGTGGAAAALTKAGYDVVGVDPSSDGIGKANIRHPGLALSVGSAYDDLSREYGSFSAVISLEVVEHVYDPKTFTSTMFDLVKPGGIAVISTPYHGYLKNLALAATGKMDDHFMPLKDHGHIKFWSKNTLRTLLLETGFANVRFEYVGRIPAFAKSMIAVADKPFSQSARHGAVRRSSPEVVSTACRQKKP”, the protein production result was “failed”.
For “MSIESDMIHVEVVYALPHEQRVFNLVVNNHATVEEIIRQSGVLELYPEIDLAKNKVGVFSRNVKLDATVRDKDRIEIYRPLLADPKEIRRKRAEQAKAAGNADPVTGGKPNALRK” the value was “failed”; for “MSIHVNEANLTFHLQTDHTSYIFQIMKNGEAGQIYYGPRIHVQPTYQNLMSQEWRDATPSLNEENPNFQPATIKAEYASLGKGDFRQPAFQVTQANGSRITELTYDHYQLLTGKQRLANLPSTFDDTDDDAQTLVVSFNDRITGLALDLNYSIFPHQDVIVKSAKFTNPSSEKLVLNRALSSQLDLPDANYDLIQFSGTWARERHLYRHPLRPGMQSISSLRMASSHQQNPFMMLARPQTTDEQGAVFGFNLVYSGNFLDAIEVDQYSTSRILTGINPDEFGWNLAPQATFQTPEAILSYTSAGMNQLSQQMASFYQQHLVNPRFAHEERPVLINNWEATYFDFNEAKLMTIVNQAKRLGIEMFVLDDGWFGHRDDDTTSLGDWFVDQRKFPDGIEHFSQAVHQQGMKFGLWFEPEMVSVDSDLYQQHPDWLIHAPKSTPTPGRHQFVLDMARPEVVDYLFKLMSQMIESANLDYIKWDMNRYATEMFSSRLTSDQQLELPHRYILGVYQLYARLTQAYPNVLFESCASGGGRFDLGMMYYAPQAWTSDDTDAAERLLIQFGTSYGYPQAMMGAHVSAVPNDQMGRITSLKTRGAVAFFGDLGYELDITKMAPTELDQVKKQVAFYKCYRQLFQFGKFYRIDSPFVEDGNVTSWQVVSDDQKQAIAARYQLLNHPNAPYTRFYFKGLRPNQRYQINDDPSTYYGDELMNAGYFVPTILADGQESKDFYTQLFVVTAILEHHHHHH”, “not failed”; for “MSIIFILKMSKQSEQILEEQLLIQLHKLGYEKVILPNEDALLLNLKKQLEKHNKITFSKAEFDKVLNIVNKGSVFEKAKILRQRQHIIRDNGDNLYFEFLNTDYWCQNEYQVTNQLSQEGRYLNRYDVTLLINGLPLVQIELKRRGLELKEAFNQIDRYRKHSFGSGHGLYHFVQLFVISNGVNTKYFGNFGIHKQEYLQTFHWTDENNKPLNNILNGFTDTFLEPCHISKMICKYIVLHETEKKLMVLRPYQYFAVENIIKKVKENEVLNGYDINKNGYIWHTTGSGKTLTSFKASQILSNIPAIKKVVFVVDRKDLDYQTNQEYEKFSQGCVSSVGNTDDLIKKFNDPAERIIVTTIQKLNNAISGKNIYKMKAMQDQRMVFIFDECHRSQFGDTHKNIVSYFTNIQLFGFTGTPILVENANGEKTTASLFGKCLHKYVITDAIRDENVLRFSVEYIQTFKQKEHIVDLKIEQINETEVFEAPERKEAIVNYILQHHKQKTQQGKYCAMMCVQDIDSVIQYYEILKAMKKAGEHQLKIITIFSFAQNEDPLDYEIKTELSVVEEPKALYGLPPHRRELLDAYIGDFNQLYDTAHSTKDSQSFYTYYNDVAKKAKNNEMDILLVANMFLTGFDSKYLNTLYVDKNLQYHGLIQAFSRTNRTHDKNKTQGNIVCFRNLKDKTDEAITLFSNREAIDEVIVAPYETYVEEFNKAVNQLKAIVPNVDSVDDLYTEEDQLKFILAFRNMIRLHKKMSHYTEFTWDDLEIEEQSFLDYSSKYQDLKDSIVHKSDKEKTSILDDIDFELELIKKDTINVSYIVQLLFKLKVKKGKKDKEEVEKEIFNLLNTEVSLRSKRELIEKFIKENMSKIVEAEDIVDEFTRFWNEEQQKAFDELVQDENLSAERTQHLIEGYLFSEQEPLRDEILKLRNEGRPSALQAKDISNRILQRIKDFVNTFINGMNIAA”, “failed”.
In the case of “MSIKKLWVIPKDGYLLLLDYDSDEEEEQAHSEVKRPAFGKHENMPPHVEADEDIRDEQDSMLDKSGENVSFSEEWQRFARSVETPMENWNLLSGEQQVRNASELDLMEVQNPVTHDDGNANPEEVVGDTRKKINNKLCEQKFDMDIQKFNEEQEKSVNNYQKEQQALKLSECSQSPTMEAIEDMHEKSMEGLMNMETNNYDMLFDVDGEETL”, the protein production result was “failed”.
